Source: patent US20190327974A1, “SYNERGISTS FOR IMPROVED PESTICIDES” (priority 2017, published 2019)

Columns and labels:
[1] = system: other serine hydrolases (e.g. α-lytic protease); conditions: cited from earlier work
[2] = system: CCCC(=O)Oc1ccc([N+](=O)[O-])cc1; test: Inhibition of Gly137Asp LcαE7, 4-nitrophenol butyrate hydrolysis; assay type: biochemical, Lucilia cuprina; conditions: other: Gly137Asp αE7, room temperature; pH 7.5
Excerpt: (§1) The term “carboxyethylesterase” (CBE), refers to insect carboxylesterases from the alpha and beta and non-microsomal gene clusters, as defined in Oakeshott, Claudianos, Campbell, Newcomb and Russell, “Biochemical Genetic and Genomics of Insect Esterases”, pp 309-381, Chapter 10, Volume 5, 2005, Eds. Gilbert, Iatrou, Gill, published—Elsevier which is incorporated herein by reference. The αE7 CBE is an example of an alpha esterase, and is found in the sheep blowfly, Lucilia cuprina, with homologous genes being present in other insect pests. […]
(§2) His6-tagged proteins were expressed in BL21(DE3) E. coli (Invitrogen) at 26° C. for 18 hours. […] Protein concentration was determined by measuring the absorbance at 280 nm with an extinction coefficient calculated using the Protparam online server (Gasteiger, E. et al. Protein identification and analysis tools on the ExPASy server. Proteomics Protoc. Handb. 571-607 (2005). doi:10.1385/1-59259-890-0:571).
(§3) Inhibition of wild-type αE7 and the Gly137Asp αE7 variant was determined by a competition assay between the native-substrate analogue 4-nitrophenol butyrate (Sigma) and the boronic acid compounds. Initially, the Michalis constant (KM) with 4-nitrophenol butyrate was measured for both enzymes to determine an appropriate concentration of substrate for use in the competition assays. […]

[3] = system: CCCC(=O)Oc1ccc([N+](=O)[O-])cc1; test: Inhibition of wild-type LcαE7, 4-nitrophenol butyrate hydrolysis; assay type: biochemical, Lucilia cuprina; conditions: other: wildtype αE7, room temperature; pH 7.5
Excerpt: as §1, §2, §3

OB(O)c1ccccc1 [PBA, phenylboronic acid]
inhibition of other serine hydrolases [1]: micromolar to millimolar inhibition

Lucilia cuprina αE7 carboxylesterase (LcαE7) variant Gly137Asp (Lucilia cuprina; G137D)
Km [2]: 250 µM

Lucilia cuprina αE7 carboxylesterase (LcαE7), wild type, GenBank AAB67728.1 (Lucilia cuprina)
Km [3]: 15 µM
